Measurements as given in PMC2784006.

B1: calcium/calmodulin-dependent serine protein kinase (CASK) (natural protein)
chain: MADDDVLFEDVYELCEVIGKGPFSVVRRCINRETGQQFAVKIVDVAKFTSSPGLSTEDLKREASICHMLKHPHIVELLETYSSDGMLYMVFEFMDGADLCFEIVKRADAGFVYSEAVASHYMRQILEALRYCHDNNIIHRDVKPHCVLLASKENSAPVKLGGFGVAIQLGESGLVAGGRVGTPHFMAPEVVKREPYGKPVDVWGCGVILFILLSGCLPFYGTKERLFEGIIKGKYKMNPRQWSHISESAKDLVRRMLMLDPAERITVYEALNHPWLKERDRYAYKIHLPETVEQLRKFNARRKLKGAVLAAVSSHKFNSFYGDPPEELPDFSEDPTSSGLLAAERAVSQVLDSLEEIHALTDCSEKDLDFLHSVFQDQHLHTLLDLYDKINTKSSPQIRNPPSDAVQRAKEVLEEISCYPENNDAKELKRILTQPHFMALLQTHDVVAHEVYSDEALRVTPPPTSPYLNGDSPESANGDMDMENVTRVRLVQFQKNTDEPMGITLKMNELNHCIVARIMHGGMIHRQGTLHVGDEIREINGISVANQTVEQLQKMLREMRGSITFKIVPSYRTQSSSCERDSPSTSRQSPANGHSSTNNSVSDLPSTTQPKGRQIYVRAQFEYDPAKDDLIPCKEAGIRFRVGDIIQIISKDDHNWWQGKLENSKNGTAGLIPSPELQEWRVACIAMEKTKQEQQASCTWFGKKKKQYKDKYLAKHNAVFDQLDLVTYEEVVKLPAFKRKTLVLLGAHGVGRRHIKNTLITKHPDRFAYPIPHTTRPPKKDEENGKNYYFVSHDQMMQDISNNEYLEYGSHEDAMYGTKLETIRKIHEQGLIAILDVEPQALKVLRTAEFAPFVVFIAAPTITPGLNEDESLQRLQKESDVLQRTYAHYFDLTIINNEIDETIRHLEEAVELVCTAPQWVPVSWVY

What follows are molecules tested against HA-tagged Synaptic Cell Adhesion Molecule 1 (HA-SynCAM1), full length (mouse) (assay: Cell Adhesion Molecule / Receptor Recruitment Assay).
HA-tagged Synaptic Cell Adhesion Molecule 1 (HA-SynCAM1), full length (mouse), sequence (Q8R5M8 48-456): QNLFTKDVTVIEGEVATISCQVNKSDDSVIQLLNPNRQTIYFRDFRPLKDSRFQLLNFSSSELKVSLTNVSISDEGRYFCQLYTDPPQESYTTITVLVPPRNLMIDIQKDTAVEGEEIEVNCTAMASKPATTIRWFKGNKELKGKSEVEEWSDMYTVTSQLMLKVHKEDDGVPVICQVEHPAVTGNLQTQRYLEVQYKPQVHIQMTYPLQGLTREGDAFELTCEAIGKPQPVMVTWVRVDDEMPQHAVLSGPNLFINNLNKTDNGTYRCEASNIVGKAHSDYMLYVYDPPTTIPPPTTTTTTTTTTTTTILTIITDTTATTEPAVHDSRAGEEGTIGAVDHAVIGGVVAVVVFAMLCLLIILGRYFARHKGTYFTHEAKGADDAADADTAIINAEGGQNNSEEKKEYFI

| Molecule | % increase in fluorescence intensity at microspheres relative to background [%] |
| --- | --- |
| GFP-tagged erythrocyte protein band 4.1-like 3 (protein 4.1B), full length (4.1B-GFP) (natural protein) | 114 |
| Syntenin1-GFP (from UniProt O00560 1-298) (natural protein) | 91.8 |
| protein 4.1N, GFP tagged (4.1N-GFP) (from UniProt Q9Z2H5 1-879) (natural protein) | 100 |
| B1 | 123 |
